Here are results for two molecules from publication PMC2848763, “The Puf family of RNA-binding proteins in plants: phylogeny, structural modeling, activity and subcellular localization”.

Data set [1] addresses T1, GST-AtPum2 PUM-HD (Arabidopsis thaliana, UniProt Q9ZW06 614-963).
T1 sequence: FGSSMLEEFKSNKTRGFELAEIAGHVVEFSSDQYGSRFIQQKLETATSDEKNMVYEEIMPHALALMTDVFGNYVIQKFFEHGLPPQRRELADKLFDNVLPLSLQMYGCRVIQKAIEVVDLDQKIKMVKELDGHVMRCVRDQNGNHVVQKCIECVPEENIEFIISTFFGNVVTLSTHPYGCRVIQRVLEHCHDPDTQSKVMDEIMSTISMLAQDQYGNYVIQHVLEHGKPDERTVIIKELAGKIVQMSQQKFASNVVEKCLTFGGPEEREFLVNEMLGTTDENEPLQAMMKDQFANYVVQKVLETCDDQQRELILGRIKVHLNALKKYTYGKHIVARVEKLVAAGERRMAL
Put plainly: EMSA; estimated from free RNA; complex unstable, no accurate Kd; 10 mM HEPES pH 7.4, 1 mM EDTA, 50 mM KCl, 1 mM DTT, 0.01% BSA, 0.01% Tween 20; room temperature 1 h; 6% native gel run at 4 C. The following applies: protein: recombinant; tags: N-terminal GST (pGEX-6P-1); label: 5' 32P; single strand, 19 nt.

The target in data set [2] is T1, GST-AtPum2 PUM-HD. Put plainly: EMSA; apparent Kd; 200 pM labelled RNA; 10 mM HEPES pH 7.4, 1 mM EDTA, 50 mM KCl, 1 mM DTT, 0.01% BSA, 0.01% Tween 20; room temperature 1 h; 6% native gel run at 4 C. The note with it: protein: recombinant; tags: N-terminal GST (pGEX-6P-1); label: 5' 32P; single strand, 19 nt. In general terms: In EMSA bound probe runs differently from free probe, usually more slowly.

For CCAGAAUUUUAUAUAUUCG (ssRNA) [mutant NRE1 (G to U)], the Kd with GST-AtPum2 PUM-HD [1] was approximately 0.354 µM.
As to CCAGAAUUGUAUAUAUUCG (ssRNA) [wildtype NRE1 (hunchback NRE1 BoxB)], the Kd in the data set with GST-AtPum2 PUM-HD [2] worked out at 0.0106 µM.
